# T1: p53-382 acetylated peptide (Fluor de Lys-SIRT1), RHKK(Ac)
# T1 chain: RHKK
# Target: T1, p53-382 acetylated peptide (Fluor de …)
protein,measurement,value
recombinant human SIRT1 (protein) MADEAALALQPGGSPSAAGADREAASSPAGEPLRKRPRRDGPGLERSPGEPGGAAPEREVPAAARGCPGAAAAALWREAEAEAAAAGGEQEAQATAAAGEGDNGPGLQGPSREPPLADNLYDEDDDDEGEEEEEAAAAAIGYRDNLLFGDEIITNGFHSCESDEEDRASHASSSDWTPRPRIGPYTFVQQHLMIGTDPRTILKDLLPETIPPPELDDMTLWQIVINILSEPPKRKKRKDINTIEDAVKLLQECKKIIVLTGAGVSVSCGIPDFRSRDGIYARLAVDFPDLPDPQAMFDIEYFRKDPRPFFKFAKEIYPGQFQPSLCHKFIALSDKEGKLLRNYTQNIDTLEQVAGIQRIIQCHGSFATASCLICKYKVDCEAVRGDIFNQVVPRCPRCPADEPLAIMKPEIVFFGENLPEQFHRAMKYDKDEVDLLIVIGSSLKVRPVALIPSSIPHEVPQILINREPLPHLHFDVELLGDCDVIINELCHRLGGEYAKLCCNPVKLSEITEKPPRTQKELAYLSELPPTPLHVSEDSSSPERTSPPDSSVIVTLLDQAAKSNDDLDVSESKGCMEEKPQEVQTSRNVESIAEQMENPDLKNVGSSTGEKNERTSVAGTVRKCWPNRVAKEQISRRLDGNQYLFLPPNRYIFHGAEVYSDSEDDVLSSSSCGSNSDSGTCQSPSLEEPMEDESEIEEFYNGLEDEPDVPERAGGAGFGTDGDDQEAINEAISVKQEVTDMNYPSNKS,"Km (+100 µM resveratrol), SIRT1 initial rate vs p53-382 acetylated peptide concentration at 3 mM NAD+","Km(+resveratrol, Δ)=1.8 µM"
same,"Km (control), SIRT1 initial rate vs p53-382 acetylated peptide concentration at 3 mM NAD+","Km(control, ▪)=64 µM"
same,fold decrease of the acetylated peptide Km with 100 µM resveratrol,"Its effect on the acetylated peptide Km was particularly striking, amounting to a 35-fold decrease"
